Our source for the Response values is patent publication US20250179208A1.

This assay addresses CD26 protein (recombinant human CD26) (human) (UniProt P27487). The assay is described as follows: BLI (Octet QKe), CD26 amine-coupled on AR2G sensor, antibody at 181.8 nM.

B1: 17G108 (anti-CD26-CD3 chimeric bispecific antibody derived from No. 160 mouse antibody) (bispecific antibody)
chain: DIVMTQAAPSVPVTPGESVSISCRSSKSLLHSNGNTYLYWFLQRPGQSPQLLISQMSNLASGIPDRFSGSGSGTAFTLRISRVEAEDVGVYYCMQHLEYPFTFGSGTKLEIKGGGGSGGGGSGGGGSEVQLQQSGAELVKPGASVKLSCTASGFNIKDNYMNWVKQRPEQGLEWIGRIDPANGNPKYDPKFQGKATITADTSSNTAYLQLSSLTSEDTAVYYCTRWIYYYGSRYEWYFDVWGAGTTVTVSSGGGGSDVQLVQSGAEVKKPGASVKVSCKASGYTFTRYTMHWVRQAPGQGLEWIGYINPSRGYTNYADSVKGRFTITTDKSTSTAYMELSSLRSEDTATYYCARYYDDHYCLDYWGQGTTVTVSSGGGGSGGGGSGGGGSDIVLTQSPATLSLSPGERATLSCRASQSVSYMNWYQQKPGKAPKRWIYDTSKVASGVPARFSGSGSGTDYSLTINSLEAEDAATYYCQQWSSNPLTFGGGTKVEIK
Turning to B1, the Response is 0.0395.
